# Assay results: US20110129478A1
# How the values were obtained:
# [1] = biological target: human CD179b protein on the cell membrane surface of human cancer cell lines (human) (UniProt P15814); experiment: flow cytometry on human cancer cell lines expressing CD179b, against mouse IgG2a isotype control
# [2] = biological target: human CD179b protein on the cell membrane surface of human cancer cell lines (human) (UniProt P15814); experiment: cell-based or functional assay
# Sequence of UniProt P15814 (P15814 38-213): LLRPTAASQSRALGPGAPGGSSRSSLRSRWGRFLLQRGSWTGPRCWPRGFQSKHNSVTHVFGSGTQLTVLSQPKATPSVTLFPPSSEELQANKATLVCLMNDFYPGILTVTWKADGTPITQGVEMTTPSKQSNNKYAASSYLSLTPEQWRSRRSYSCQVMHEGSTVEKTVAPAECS
substance,measurement,setting,value
mouse anti-human CD179b antibody (clone name: GA170; manufactured by Santa Cruz Biotechnology),fluorescence intensity higher than that of the isotype control,[1],> 10%
same,"ADCC activity (chromium 51 release), BDCM cells",[2],32.3%
same,"ADCC activity (chromium 51 release), Namalwa cells",[2],32.6%
same,"ADCC activity (chromium 51 release), RPMI1788 cells",[2],28.3%
same,"CDC activity (chromium 51 release), BDCM cells",[2],21.2%
same,"CDC activity (chromium 51 release), Namalwa cells",[2],30.5%
same,"CDC activity (chromium 51 release), RPMI1788 cells",[2],30.5%
